According to US20220064329A1 (Novo Nordisk, published 2022):
Positions count from the first letter of the chain named. Values belong to the binder of their own block, whether it stands above or below them.

How the values were obtained:
[1] = biological target: T1, recombinant human activated FVII (FVIIa) (human, UniProt P08709 61-212; P08709 213-466, ten glutamate residues of the Gla domain may be gamma-carboxylated); assay: dissociation constant listed with the stimulatory activities; method not given
T1 construct: Two-chain form after cleavage between Arg152 and Ile153; light and heavy chain tethered by a disulfide bond; also called rFVIIa; Factor VIIa
T1 sequence 1: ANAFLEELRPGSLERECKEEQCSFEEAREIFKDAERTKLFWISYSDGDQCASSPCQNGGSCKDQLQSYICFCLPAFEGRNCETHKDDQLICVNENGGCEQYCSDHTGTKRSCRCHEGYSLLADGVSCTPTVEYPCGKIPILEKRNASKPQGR
T1 sequence 2: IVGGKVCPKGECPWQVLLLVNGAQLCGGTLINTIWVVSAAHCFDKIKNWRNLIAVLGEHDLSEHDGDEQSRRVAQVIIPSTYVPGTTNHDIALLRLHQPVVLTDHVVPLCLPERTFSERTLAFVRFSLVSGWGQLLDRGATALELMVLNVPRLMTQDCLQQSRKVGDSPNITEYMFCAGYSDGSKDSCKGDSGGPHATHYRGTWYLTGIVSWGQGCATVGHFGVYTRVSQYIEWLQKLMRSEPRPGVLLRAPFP

[2] = biological target: T1, recombinant human activated FVII (FVIIa); assay: cell-based or functional assay
[3] = biological target: T2, sTLT1 (SEQ ID No: 3 with six histidine residues added at the C-terminus) (human, UniProt Q86YW5 16-162); assay: dissociation constant listed with the stimulatory activities; value of the anti-TLT-1 arm
T2 construct: Soluble TLT-1 used in SPR
T2 sequence: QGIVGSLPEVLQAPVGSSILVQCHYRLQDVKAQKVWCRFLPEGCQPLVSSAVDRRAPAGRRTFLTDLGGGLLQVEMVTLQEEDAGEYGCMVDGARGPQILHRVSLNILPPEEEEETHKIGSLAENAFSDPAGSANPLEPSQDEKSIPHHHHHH

[4] = biological target: T3, recombinant human activated Factor VII (FVIIa) (human, UniProt P08709 61-212; P08709 213-466, ten glutamate residues of the Gla domain may be gamma-carboxylated); assay: SPR (Biacore)
T3 construct: chains tethered by a disulfide bond; also called Factor VIIa; rFVIIa
T3 sequence 1: T1 sequence 1
T3 sequence 2: T1 sequence 2

[5] = biological target: T3, recombinant human activated Factor VII …; assay: cell-based or functional assay

B2: biAb0098 (bispecific antibody, human IgG4 S228P, kappa)
heavy 1: DVQLQESGPGLVEPSQTLSLTCTVSGYSITSDSAWSWIRQFPGKKLEWMGYIQYSGSTNYNPSLKSRVTISRDTSKNQFSLKLSSVTAEDTAVYYCARSVNYYGNSFAVDYWGQGTSVTVSSASTKGPSVFPLAPCSRSTSESTAALGCLVKDYFPEPVTVSWNSGALTSGVHTFPAVLQSSGLYSLSSVVTVPSSSLGTKTYTCNVDHKPSNTKVDKRVESKYGPPCPPCPAPEFLGGPSVFLFPPKPKDTLMISRTPEVTCVVVDVSQEDPEVQFNWYVDGVEVHNAKTKPREEQFNSTYRVVSVLTVLHQDWLNGKEYKCKVSNKGLPSSIEKTISKAKGQPREPQVYTLPPSQEEMTKNQVSLTCLVKGFYPSDIAVEWESNGQPENNYKTTPPVLDSDGSFLLYSKLTVDKSRWQEGNVFSCSVMHEALHNHYTQKSLSLSLGK
light 1: EIVLTQSPATLSLSPGERATLSCRASQGISDYLHWYQQKPGEAPRLLIKYTSQPATGIPARFSGSGSGTDFTLTISSLEPEDVGVYYCQNGHSFPLTFGAGTKLELKRTVAAPSVFIFPPSDEQLKSGTASVVCLLNNFYPREAKVQWKVDNALQSGNSQESVTEQDSKDSTYSLSSTLTLSKADYEKHKVYACEVTHQGLSSPVTKSFNRGEC
heavy 2: not shown
light 2: DIVMTQTPLSSPVTLGQPASISCRSSQSLVHRNGNTYFHWLQQRPGQPPRLLIYKVSNRFSGVPDRFSGSGAGTDFTLKISRVEAEDVGVYYCSQSTHVPYTFGQGTKLEIKRTVAAPSVFIFPPSDEQLKSGTASVVCLLNNFYPREAKVQWKVDNALQSGNSQESVTEQDSKDSTYSLSSTLTLSKADYEKHKVYACEVTHQGLSSPVTKSFNRGEC
notes: Duobody, constant domain type H (IgG4): anti-FVII(a) arm mAb0874, anti-TLT-1 arm mAb1047; also called mAb0874 x mAb1047
- Kd [1]: 16.2 nM
- Stimulation (fold): FXa generated by FVIIa with lipidated TLT-1 and 100 nM biAb, relative to free FVIIa [2]: 15.3 fold
- Kd [3]: 75 nM

B3: biAb0097 (bispecific antibody, human IgG4 S228P, kappa)
heavy 1: DVQLQESGPGLVEPSQSLSLTCTVTGYSITSDSAWSWIRQFPGNKLEWMGYIQYSGSTNYNPSLKSRISVTRDTSKNQFFLRLSSVTAEDTATYYCTRSVNYYGNSFAVGYWGQGTSVTVSSASTKGPSVFPLAPCSRSTSESTAALGCLVKDYFPEPVTVSWNSGALTSGVHTFPAVLQSSGLYSLSSVVTVPSSSLGTKTYTCNVDHKPSNTKVDKRVESKYGPPCPPCPAPEFLGGPSVFLFPPKPKDTLMISRTPEVTCVVVDVSQEDPEVQFNWYVDGVEVHNAKTKPREEQFNSTYRVVSVLTVLHQDWLNGKEYKCKVSNKGLPSSIEKTISKAKGQPREPQVYTLPPSQEEMTKNQVSLTCLVKGFYPSDIAVEWESNGQPENNYKTTPPVLDSDGSFLLYSKLTVDKSRWQEGNVFSCSVMHEALHNHYTQKSLSLSLGK
light 1: B2 light 1 with N90S
heavy 2: not shown
light 2: B2 light 2
notes: Duobody, constant domain type H (IgG4): anti-FVII(a) arm mAb0872, anti-TLT-1 arm mAb1047; also called mAb0872 x mAb1047
- Kd [1]: 2.2 nM
- Stimulation (fold): FXa generated by FVIIa with lipidated TLT-1 and 100 nM biAb, relative to free FVIIa [2]: 17.4 fold
- Kd [3]: 75 nM

B4: biAb0091 (bispecific antibody, human IgG4 S228P, kappa)
heavy 1: B2 heavy 1 with D1Q, F41P, M49I, E89A, D110G, S117L
light 1: B2 light 1 with I29V, E42Q, T51A, V83F, G84A, A100Q, L106I
heavy 2: not shown
light 2: B2 light 2
notes: Duobody, constant domain type H (IgG4): anti-FVII(a) arm mAb0875, anti-TLT-1 arm mAb1049; also called mAb0875 x mAb1049
- Kd [1]: 0.28 nM
- Stimulation (fold): FXa generated by FVIIa with lipidated TLT-1 and 100 nM biAb, relative to free FVIIa [2]: 11.3 fold
- Kd [3]: 320 nM

B6: biAb0017 (bispecific antibody, human IgG4 S228P, kappa)
heavy 1: B3 heavy 1
light 1: B2 light 1 with N90S
heavy 2: not shown
light 2: B2 light 2 with N33P
notes: Duobody, constant domain type H (IgG4): anti-FVII(a) arm mAb0872, anti-TLT-1 arm mAb1038; also called mAb0872 x mAb1038
- Kd [1]: 2.2 nM
- Stimulation (fold): FXa generated by FVIIa with lipidated TLT-1 and 100 nM biAb, relative to free FVIIa [2]: 13.6 fold
- Kd [3]: 19 nM

B8: biAb0013 (bispecific antibody, human IgG4 S228P, kappa)
heavy 1: B2 heavy 1
light 1: B2 light 1
heavy 2: not shown
light 2: B2 light 2 with N33Q
notes: Duobody, constant domain type H (IgG4): anti-FVII(a) arm mAb0874, anti-TLT-1 arm mAb1076; also called mAb0874 x mAb1076
- Kd [1]: 16.2 nM
- Stimulation (fold): FXa generated by FVIIa with lipidated TLT-1 and 100 nM biAb, relative to free FVIIa [2]: 16 fold
- Kd [3]: 2.9 nM

B11: mAb0707(OA) (antibody, human IgG4 S228P, kappa)
heavy: QVQLQESGPGLVEPSQTLSLTCTVSGYSISSDSAWSWIRQPPGKGLEWIGYIQYSGSTNYNPSLKSRVTISRDTSKNQFSLKLSSVTAADTAVYYCARSVNYYGNSFAVGPWGQGTLVTVSSASTKGPSVFPLAPCSRSTSESTAALGCLVKDYFPEPVTVSWNSGALTSGVHTFPAVLQSSGLYSLSSVVTVPSSSLGTKTYTCNVDHKPSNTKVDKRVESKYGPPCPPCPAPEFLGGPSVFLFPPKPKDTLMISRTPEVTCVVVDVSQEDPEVQFNWYVDGVEVHNAKTKPREEQFNSTYRVVSVLTVLHQDWLNGKEYKCKVSNKGLPSSIEKTISKAKGQPREPQVYTLPPSQEEMTKNQVSLSCAVKGFYPSDIAVEWESNGQPENNYKTTPPVLDSDGSFFLVSRLTVDKSRWQEGNVFSCSVMHEALHNHYTQKSLSLSLGK
light: B2 light 1 with V83F, G84A, A100Q, L106I
chain: not shown
notes: one-armed (OA) antibody, constant domain type F (knob-in-hole)
- Kd [4]: 0.106 nM
- AT inhibition (kinh %) [5]: 129%
- TGT activity (%% FVIIa) [5]: 102%

B12: biAb0012 (bispecific antibody, human IgG4 S228P, kappa)
heavy 1: B3 heavy 1
light 1: B2 light 1 with N90S
heavy 2: not shown
light 2: B2 light 2 with N33Q
notes: Duobody, constant domain type H (IgG4): anti-FVII(a) arm mAb0872, anti-TLT-1 arm mAb1076; also called mAb0872 x mAb1076
- Kd [1]: 2.2 nM
- Stimulation (fold): FXa generated by FVIIa with lipidated TLT-1 and 100 nM biAb, relative to free FVIIa [2]: 22.1 fold
- Kd [3]: 2.9 nM

B13: biAb0016 (bispecific antibody, human IgG4 S228P, kappa)
heavy 1: B2 heavy 1 with D1Q, F41P, M49I, E89A, D110G, S117L
light 1: B2 light 1 with I29V, E42Q, T51A, V83F, G84A, A100Q, L106I
heavy 2: not shown
light 2: B2 light 2 with N33P
notes: Duobody, constant domain type H (IgG4): anti-FVII(a) arm mAb0875, anti-TLT-1 arm mAb1038; also called mAb0875 x mAb1038
- Kd [1]: 0.28 nM
- Stimulation (fold): FXa generated by FVIIa with lipidated TLT-1 and 100 nM biAb, relative to free FVIIa [2]: 17.3 fold
- Kd [3]: 19 nM

Other lines, results leading:

- Kd [1]: 0.28 nM
- Stimulation (fold): FXa generated by FVIIa with lipidated TLT-1 and 100 nM biAb, relative to free FVIIa [2]: 20.3 fold
- Kd [3]: 2.9 nM
B1: biAb0011 (bispecific antibody, human IgG4 S228P, kappa)
heavy 1: B2 heavy 1 with D1Q, F41P, M49I, E89A, D110G, S117L
light 1: B2 light 1 with I29V, E42Q, T51A, V83F, G84A, A100Q, L106I
heavy 2: not shown
light 2: B2 light 2 with N33Q
notes: Duobody, constant domain type H (IgG4): anti-FVII(a) arm mAb0875, anti-TLT-1 arm mAb1076; also called mAb0875 x mAb1076

- Kd [1]: 16.2 nM
- Stimulation (fold): FXa generated by FVIIa with lipidated TLT-1 and 100 nM biAb, relative to free FVIIa [2]: 12.8 fold
- Kd [3]: 19 nM
B5: biAb0018 (bispecific antibody, human IgG4 S228P, kappa)
heavy 1: B2 heavy 1
light 1: B2 light 1
heavy 2: not shown
light 2: B2 light 2 with N33P
notes: Duobody, constant domain type H (IgG4): anti-FVII(a) arm mAb0874, anti-TLT-1 arm mAb1038; also called mAb0874 x mAb1038

- Kd [4]: 0.128 nM
- AT inhibition (kinh %) [5]: 136%
- TGT activity (%% FVIIa) [5]: 102%
B7: mAb0710(OA) (antibody, human IgG4 S228P, kappa)
heavy: B11 heavy with E13K, P41F
light: B2 light 1 with E42Q, V83F, G84A, A100Q, L106I
chain: not shown
notes: as for B11

- Kd [1]: 2.2 nM
- Stimulation (fold): FXa generated by FVIIa with lipidated TLT-1 and 100 nM biAb, relative to free FVIIa [2]: 11.2 fold
- Kd [3]: 320 nM
B9: biAb0092 (bispecific antibody, human IgG4 S228P, kappa)
heavy 1: B3 heavy 1
light 1: B2 light 1 with N90S
heavy 2: not shown
light 2: B2 light 2
notes: Duobody, constant domain type H (IgG4): anti-FVII(a) arm mAb0872, anti-TLT-1 arm mAb1049; also called mAb0872 x mAb1049

- Kd [4]: 0.0542 nM
- AT inhibition (kinh %) [5]: 132%
- TGT activity (%% FVIIa) [5]: 101%
B10: mAb0706(OA) (antibody, human IgG4 S228P, kappa)
heavy: B11 heavy with P111Y
light: B2 light 1 with E42Q, V83F, G84A, A100Q, L106I
chain: not shown
notes: as for B11

- Kd [1]: 16.2 nM
- Stimulation (fold): FXa generated by FVIIa with lipidated TLT-1 and 100 nM biAb, relative to free FVIIa [2]: 9.6 fold
- Kd [3]: 320 nM
B14: biAb0093 (bispecific antibody, human IgG4 S228P, kappa)
heavy 1: B2 heavy 1
light 1: B2 light 1
heavy 2: not shown
light 2: B2 light 2
notes: Duobody, constant domain type H (IgG4): anti-FVII(a) arm mAb0874, anti-TLT-1 arm mAb1049; also called mAb0874 x mAb1049

- Kd [1]: 0.28 nM
- Stimulation (fold): FXa generated by FVIIa with lipidated TLT-1 and 100 nM biAb, relative to free FVIIa [2]: 12.4 fold
- Kd [3]: 75 nM
B15: biAb0096 (bispecific antibody, human IgG4 S228P, kappa)
heavy 1: B2 heavy 1 with D1Q, F41P, M49I, E89A, D110G, S117L
light 1: B2 light 1 with I29V, E42Q, T51A, V83F, G84A, A100Q, L106I
heavy 2: not shown
light 2: B2 light 2
notes: Duobody, constant domain type H (IgG4): anti-FVII(a) arm mAb0875, anti-TLT-1 arm mAb1047; also called mAb0875 x mAb1047
